Measurements as given in article PMC6601540 (mAbs, 2019).
“And” between values parts separate entries of the source, which are not always exact repeats. Equal values may be shown once.

Columns and labels:
[1] = target: human PD-1 on 293T cells stably transfected with human PD-1 (human, UniProt Q15116); assay: flow cytometry on cells
[2] = target: refolded PD-1 protein (L25-R147) expressed in E. coli (Homo sapiens, UniProt Q15116); assay: SPR
[3] = target: recombinant human PD-1 extracellular domain (ECD) fusion protein (human, UniProt Q15116); assay: ELISA
Chain of recombinant human PD-1 extracellular domain (ECD) fusion protein (Q15116 25-170): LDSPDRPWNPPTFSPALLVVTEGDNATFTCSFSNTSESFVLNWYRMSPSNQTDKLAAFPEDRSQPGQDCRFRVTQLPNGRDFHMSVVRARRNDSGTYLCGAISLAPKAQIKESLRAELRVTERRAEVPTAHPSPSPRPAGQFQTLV

Chain of human PD-1 on 293T cells stably transfected with human PD-1 (Q15116 25-288): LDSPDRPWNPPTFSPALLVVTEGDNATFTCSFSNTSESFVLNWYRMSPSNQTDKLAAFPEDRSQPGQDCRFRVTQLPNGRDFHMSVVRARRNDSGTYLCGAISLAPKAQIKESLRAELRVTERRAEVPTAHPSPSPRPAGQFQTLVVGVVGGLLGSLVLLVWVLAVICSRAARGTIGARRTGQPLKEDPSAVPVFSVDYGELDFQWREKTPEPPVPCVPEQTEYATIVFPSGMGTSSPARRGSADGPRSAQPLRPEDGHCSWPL
Chain of refolded PD-1 protein (L25-R147) expressed in E. coli (Q15116 25-147): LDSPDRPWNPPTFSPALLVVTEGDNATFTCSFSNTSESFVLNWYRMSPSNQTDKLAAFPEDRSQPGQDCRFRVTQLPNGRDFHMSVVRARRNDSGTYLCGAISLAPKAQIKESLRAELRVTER

IC50 [1]: 1.3 nM and 3.7 nM
Kd [2]: 0.324 nM
IC50 [3]: 0.8 nM and 1.3 nM
B1: toripalimab (antibody, V domains shown)
VH: QGQLVQSGAEVKKPGASVKVSCKASGYTFTDYEMHWVRQAPIHGLEWIGVIESETGGTAYNQKFKGRVTITADKSTSTAYMELSSLRSEDTAVYYCAREGITTVATTYYWYFDVWGQGTTVTVSS
VL: DVVMTQSPLSLPVTLGQPASISCRSSQSIVHSNGNTYLEWYLQKPGQSPQLLIYKVSNRFSGVPDRFSGSGSGTDFTLKISRVEAEDVGVYYCFQGSHVPLTFGQGTKLEIK
